Values belong to the binder of their own block, whether it stands above or below them. Numbered stars: 1 amine (or outer) side, 2 acyl side, 3 side chain; on linkers, the order of the positions; unused ones are H or OH. Bridge positions count the residues as written; N and C are the ends. Side chains are listed from the residue outwards. Ends that are not written are not given here. * marks the point of attachment. C20 diacid = O=C(O)CCCCCCCCCCCCCCCCCCC(=O)*; γGlu = O=C(O)[C@H](CCC(=O)[*:2])N[*:1]
Key:
[1] = molecular target: T1, human calcitonin receptor (human, UniProt P30988 25-474); assay: ratio of hCTR IC50 to hAmylin-R IC50 (reference: human amylin receptor)
T1 construct: whole, on cells; Used as cell membranes; also called hCTR; hCT
T1 sequence (looked up): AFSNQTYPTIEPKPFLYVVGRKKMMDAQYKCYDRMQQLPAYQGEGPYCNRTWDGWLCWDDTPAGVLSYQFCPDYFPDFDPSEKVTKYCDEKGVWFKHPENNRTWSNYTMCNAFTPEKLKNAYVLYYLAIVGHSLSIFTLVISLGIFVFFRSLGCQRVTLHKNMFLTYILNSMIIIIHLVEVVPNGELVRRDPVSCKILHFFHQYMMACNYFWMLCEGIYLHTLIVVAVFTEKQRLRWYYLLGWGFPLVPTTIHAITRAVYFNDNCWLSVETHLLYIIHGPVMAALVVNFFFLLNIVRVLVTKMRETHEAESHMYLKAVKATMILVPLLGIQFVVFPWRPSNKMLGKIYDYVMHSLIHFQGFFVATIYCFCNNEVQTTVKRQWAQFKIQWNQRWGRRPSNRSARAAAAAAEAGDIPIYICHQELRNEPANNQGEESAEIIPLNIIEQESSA
How it was run: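 Competition binding by SPA uses membrane preparations (35 ng/μL final) in pH 7.4 Hepes buffer with 1 mM CaCl2 and 5 mM MgCl₂. Incubation lasts 120 min at 25° C, and IC₅₀ comes from one-site fitting.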

[2] = molecular target: T1, human calcitonin receptor; assay: SPA competition on BHK cell membranes, 125I-calcitonin as radioligand (Assay VII)
How it was run: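 BHK hCTR membranes 35 ng/μL + SPA beads 0.05 mg/well; buffer 50 mM Hepes pH 7.4, 1 mM CaCl2, 5 mM MgCl₂, 0.1% OA, 0.02% Tween20. 120 min, 25° C., shaking. Scintillation count; IC50 by one-site binding competition.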

Ratio hCT/hAmylin binding [1]: 60.8
IC50 [2]: 10.3 nM
B1: N^ε1-[(4S)-4-carboxy-4-(19-carboxynonadecanoylamino)butanoyl]-[His14,Arg17,Pro21,Pro27]-h-amylin (peptide)
peptide: K([γGlu-C20 diacid])CNTATCATQRLAHFLRHSSPNFGAIPSSTNVGSNTY-NH2
modifications: disulfide 2-7; N-terminus assumed
SMILES: CC[C@H](C)[C@H](NC(=O)[C@H](C)NC(=O)CNC(=O)[C@H](Cc1ccccc1)NC(=O)[C@H](CC(N)=O)NC(=O)[C@@H]1CCCN1C(=O)[C@H](CO)NC(=O)[C@H](CO)NC(=O)[C@H](Cc1c[nH]cn1)NC(=O)[C@H](CCCNC(=N)N)NC(=O)[C@H](CC(C)C)NC(=O)[C@H](Cc1ccccc1)NC(=O)[C@H](Cc1c[nH]cn1)NC(=O)[C@H](C)NC(=O)[C@H](CC(C)C)NC(=O)[C@H](CCCNC(=N)N)NC(=O)[C@H](CCC(N)=O)NC(=O)[C@@H](NC(=O)[C@H](C)NC(=O)[C@@H]1CSSC[C@H](NC(=O)[C@@H](N)CCCCNC(=O)CC[C@H](NC(=O)CCCCCCCCCCCCCCCCCCC(=O)O)C(=O)O)C(=O)N[C@@H](CC(N)=O)C(=O)N[C@@H]([C@@H](C)O)C(=O)N[C@@H](C)C(=O)N[C@@H]([C@@H](C)O)C(=O)N1)[C@@H](C)O)C(=O)N1CCC[C@H]1C(=O)N[C@@H](CO)C(=O)N[C@@H](CO)C(=O)N[C@H](C(=O)N[C@@H](CC(N)=O)C(=O)N[C@H](C(=O)NCC(=O)N[C@@H](CO)C(=O)N[C@@H](CC(N)=O)C(=O)N[C@H](C(=O)N[C@@H](Cc1ccc(O)cc1)C(N)=O)[C@@H](C)O)C(C)C)[C@@H](C)O
notes: also called compound 70

Ratio hCT/hAmylin binding [1]: 35.6
IC50 [2]: 22.5 nM
B2: N^ε1-[(4S)-4-carboxy-4-[[(4S)-4-carboxy-4-(19-carboxynonadecanoylamino)butanoyl]amino]butanoyl]-[Glu14,Arg17,Pro21,Pro27,His34]-h-amylin (peptide)
peptide: K([γGlu-γGlu-C20 diacid])CNTATCATQRLAEFLRHSSPNFGAIPSSTNVGHNTY-NH2
modifications: disulfide 2-7; N-terminus assumed
SMILES: CC[C@H](C)[C@H](NC(=O)[C@H](C)NC(=O)CNC(=O)[C@H](Cc1ccccc1)NC(=O)[C@H](CC(N)=O)NC(=O)[C@@H]1CCCN1C(=O)[C@H](CO)NC(=O)[C@H](CO)NC(=O)[C@H](Cc1c[nH]cn1)NC(=O)[C@H](CCCNC(=N)N)NC(=O)[C@H](CC(C)C)NC(=O)[C@H](Cc1ccccc1)NC(=O)[C@H](CCC(=O)O)NC(=O)[C@H](C)NC(=O)[C@H](CC(C)C)NC(=O)[C@H](CCCNC(=N)N)NC(=O)[C@H](CCC(N)=O)NC(=O)[C@@H](NC(=O)[C@H](C)NC(=O)[C@@H]1CSSC[C@H](NC(=O)[C@@H](N)CCCCNC(=O)CC[C@H](NC(=O)CC[C@H](NC(=O)CCCCCCCCCCCCCCCCCCC(=O)O)C(=O)O)C(=O)O)C(=O)N[C@@H](CC(N)=O)C(=O)N[C@@H]([C@@H](C)O)C(=O)N[C@@H](C)C(=O)N[C@@H]([C@@H](C)O)C(=O)N1)[C@@H](C)O)C(=O)N1CCC[C@H]1C(=O)N[C@@H](CO)C(=O)N[C@@H](CO)C(=O)N[C@H](C(=O)N[C@@H](CC(N)=O)C(=O)N[C@H](C(=O)NCC(=O)N[C@@H](Cc1c[nH]cn1)C(=O)N[C@@H](CC(N)=O)C(=O)N[C@H](C(=O)N[C@@H](Cc1ccc(O)cc1)C(N)=O)[C@@H](C)O)C(C)C)[C@@H](C)O
notes: also called compound 87

Ratio hCT/hAmylin binding [1]: 46.5
IC50 [2]: 34.9 nM
B3: N^ε1-[(4S)-4-carboxy-4-[[(4S)-4-carboxy-4-(19-carboxynonadecanoylamino)butanoyl]amino]butanoyl]-[Glu14,Arg17,Pro21,Pro27,Arg34]-h-amylin (peptide)
peptide: K([γGlu-γGlu-C20 diacid])CNTATCATQRLAEFLRHSSPNFGAIPSSTNVGRNTY-NH2
modifications: disulfide 2-7; N-terminus assumed
SMILES: CC[C@H](C)[C@H](NC(=O)[C@H](C)NC(=O)CNC(=O)[C@H](Cc1ccccc1)NC(=O)[C@H](CC(N)=O)NC(=O)[C@@H]1CCCN1C(=O)[C@H](CO)NC(=O)[C@H](CO)NC(=O)[C@H](Cc1c[nH]cn1)NC(=O)[C@H](CCCNC(=N)N)NC(=O)[C@H](CC(C)C)NC(=O)[C@H](Cc1ccccc1)NC(=O)[C@H](CCC(=O)O)NC(=O)[C@H](C)NC(=O)[C@H](CC(C)C)NC(=O)[C@H](CCCNC(=N)N)NC(=O)[C@H](CCC(N)=O)NC(=O)[C@@H](NC(=O)[C@H](C)NC(=O)[C@@H]1CSSC[C@H](NC(=O)[C@@H](N)CCCCNC(=O)CC[C@H](NC(=O)CC[C@H](NC(=O)CCCCCCCCCCCCCCCCCCC(=O)O)C(=O)O)C(=O)O)C(=O)N[C@@H](CC(N)=O)C(=O)N[C@@H]([C@@H](C)O)C(=O)N[C@@H](C)C(=O)N[C@@H]([C@@H](C)O)C(=O)N1)[C@@H](C)O)C(=O)N1CCC[C@H]1C(=O)N[C@@H](CO)C(=O)N[C@@H](CO)C(=O)N[C@H](C(=O)N[C@@H](CC(N)=O)C(=O)N[C@H](C(=O)NCC(=O)N[C@@H](CCCNC(=N)N)C(=O)N[C@@H](CC(N)=O)C(=O)N[C@H](C(=O)N[C@@H](Cc1ccc(O)cc1)C(N)=O)[C@@H](C)O)C(C)C)[C@@H](C)O
notes: also called compound 88

Ratio hCT/hAmylin binding [1]: 14.7
IC50 [2]: 14.1 nM
B4: N^ε1-[(4S)-4-carboxy-4-[[(4S)-4-carboxy-4-(19-carboxynonadecanoylamino)butanoyl]amino]butanoyl]-[Glu14,Arg17,Pro21,Pro27,Arg34,Glu35]-h-amylin (peptide)
peptide: K([γGlu-γGlu-C20 diacid])CNTATCATQRLAEFLRHSSPNFGAIPSSTNVGRETY-NH2
modifications: disulfide 2-7; N-terminus assumed
SMILES: CC[C@H](C)[C@H](NC(=O)[C@H](C)NC(=O)CNC(=O)[C@H](Cc1ccccc1)NC(=O)[C@H](CC(N)=O)NC(=O)[C@@H]1CCCN1C(=O)[C@H](CO)NC(=O)[C@H](CO)NC(=O)[C@H](Cc1c[nH]cn1)NC(=O)[C@H](CCCNC(=N)N)NC(=O)[C@H](CC(C)C)NC(=O)[C@H](Cc1ccccc1)NC(=O)[C@H](CCC(=O)O)NC(=O)[C@H](C)NC(=O)[C@H](CC(C)C)NC(=O)[C@H](CCCNC(=N)N)NC(=O)[C@H](CCC(N)=O)NC(=O)[C@@H](NC(=O)[C@H](C)NC(=O)[C@@H]1CSSC[C@H](NC(=O)[C@@H](N)CCCCNC(=O)CC[C@H](NC(=O)CC[C@H](NC(=O)CCCCCCCCCCCCCCCCCCC(=O)O)C(=O)O)C(=O)O)C(=O)N[C@@H](CC(N)=O)C(=O)N[C@@H]([C@@H](C)O)C(=O)N[C@@H](C)C(=O)N[C@@H]([C@@H](C)O)C(=O)N1)[C@@H](C)O)C(=O)N1CCC[C@H]1C(=O)N[C@@H](CO)C(=O)N[C@@H](CO)C(=O)N[C@H](C(=O)N[C@@H](CC(N)=O)C(=O)N[C@H](C(=O)NCC(=O)N[C@@H](CCCNC(=N)N)C(=O)N[C@@H](CCC(=O)O)C(=O)N[C@H](C(=O)N[C@@H](Cc1ccc(O)cc1)C(N)=O)[C@@H](C)O)C(C)C)[C@@H](C)O

Ratio hCT/hAmylin binding [1]: 29.1
IC50 [2]: 15.2 nM
B5: N^ε1-[(4S)-4-carboxy-4-[[(4S)-4-carboxy-4-(19-carboxynonadecanoylamino)butanoyl]amino]butanoyl]-[Glu14,Arg17,Pro21,Pro27,His34,Glu35]-h-amylin (peptide)
peptide: K([γGlu-γGlu-C20 diacid])CNTATCATQRLAEFLRHSSPNFGAIPSSTNVGHETY-NH2
modifications: disulfide 2-7; N-terminus assumed
SMILES: CC[C@H](C)[C@H](NC(=O)[C@H](C)NC(=O)CNC(=O)[C@H](Cc1ccccc1)NC(=O)[C@H](CC(N)=O)NC(=O)[C@@H]1CCCN1C(=O)[C@H](CO)NC(=O)[C@H](CO)NC(=O)[C@H](Cc1c[nH]cn1)NC(=O)[C@H](CCCNC(=N)N)NC(=O)[C@H](CC(C)C)NC(=O)[C@H](Cc1ccccc1)NC(=O)[C@H](CCC(=O)O)NC(=O)[C@H](C)NC(=O)[C@H](CC(C)C)NC(=O)[C@H](CCCNC(=N)N)NC(=O)[C@H](CCC(N)=O)NC(=O)[C@@H](NC(=O)[C@H](C)NC(=O)[C@@H]1CSSC[C@H](NC(=O)[C@@H](N)CCCCNC(=O)CC[C@H](NC(=O)CC[C@H](NC(=O)CCCCCCCCCCCCCCCCCCC(=O)O)C(=O)O)C(=O)O)C(=O)N[C@@H](CC(N)=O)C(=O)N[C@@H]([C@@H](C)O)C(=O)N[C@@H](C)C(=O)N[C@@H]([C@@H](C)O)C(=O)N1)[C@@H](C)O)C(=O)N1CCC[C@H]1C(=O)N[C@@H](CO)C(=O)N[C@@H](CO)C(=O)N[C@H](C(=O)N[C@@H](CC(N)=O)C(=O)N[C@H](C(=O)NCC(=O)N[C@@H](Cc1c[nH]cn1)C(=O)N[C@@H](CCC(=O)O)C(=O)N[C@H](C(=O)N[C@@H](Cc1ccc(O)cc1)C(N)=O)[C@@H](C)O)C(C)C)[C@@H](C)O

Ratio hCT/hAmylin binding [1]: 53.6
IC50 [2]: 17.5 nM
B6: N^ε1-[(4S)-4-carboxy-4-[[(4S)-4-carboxy-4-(19-carboxynonadecanoylamino)butanoyl]amino]butanoyl]-[Glu14,Arg17,Pro21,Pro27,Pro34,Arg35]-h-amylin (peptide)
peptide: K([γGlu-γGlu-C20 diacid])CNTATCATQRLAEFLRHSSPNFGAIPSSTNVGPRTY-NH2
modifications: disulfide 2-7; N-terminus assumed
SMILES: CC[C@H](C)[C@H](NC(=O)[C@H](C)NC(=O)CNC(=O)[C@H](Cc1ccccc1)NC(=O)[C@H](CC(N)=O)NC(=O)[C@@H]1CCCN1C(=O)[C@H](CO)NC(=O)[C@H](CO)NC(=O)[C@H](Cc1c[nH]cn1)NC(=O)[C@H](CCCNC(=N)N)NC(=O)[C@H](CC(C)C)NC(=O)[C@H](Cc1ccccc1)NC(=O)[C@H](CCC(=O)O)NC(=O)[C@H](C)NC(=O)[C@H](CC(C)C)NC(=O)[C@H](CCCNC(=N)N)NC(=O)[C@H](CCC(N)=O)NC(=O)[C@@H](NC(=O)[C@H](C)NC(=O)[C@@H]1CSSC[C@H](NC(=O)[C@@H](N)CCCCNC(=O)CC[C@H](NC(=O)CC[C@H](NC(=O)CCCCCCCCCCCCCCCCCCC(=O)O)C(=O)O)C(=O)O)C(=O)N[C@@H](CC(N)=O)C(=O)N[C@@H]([C@@H](C)O)C(=O)N[C@@H](C)C(=O)N[C@@H]([C@@H](C)O)C(=O)N1)[C@@H](C)O)C(=O)N1CCC[C@H]1C(=O)N[C@@H](CO)C(=O)N[C@@H](CO)C(=O)N[C@H](C(=O)N[C@@H](CC(N)=O)C(=O)N[C@H](C(=O)NCC(=O)N1CCC[C@H]1C(=O)N[C@@H](CCCNC(=N)N)C(=O)N[C@H](C(=O)N[C@@H](Cc1ccc(O)cc1)C(N)=O)[C@@H](C)O)C(C)C)[C@@H](C)O
notes: also called compound 110
